Results from patent US20240158475A1.

target: DN-III quality control recombinant protein (produced by Fapon Biotech InC.) (dengue virus); assay: BLI, AMC sensor, antibody captured

Row | Kd | koff | kon | Binder
1 | 0.46 nM | 3.86e-05 s⁻¹ | 44600 M⁻¹ s⁻¹ | Mutation 1-23 (antibody, V domains shown) VH: EVQLQQSGTELVRPGALVKLSCKASGFNIKDYYLHWVKQRPRQGLEWIGWIDPENGKTIYDPKFQDKASITSDTSTNTAYLQLRSLTSEDTAVYYCVTAYFRFVYWGQGTLVTVSA VL: QIVLTQSPAIMSAFPGERVTMTCSASSSVRYMYWHQQKPGSSPRLLIYDTSNVASGVPVRFSGSGSGTSYSLTISRDEAMDAATYYCQQWSSTPRTFGGGTKLEIKR
2 | 0.111 nM | 3.47e-05 s⁻¹ | 312000 M⁻¹ s⁻¹ | Mutation 1-26 (antibody, V domains shown) VH: EVQLQQSGTELVRPGALVKLSCKASGFNIKDYYLHWVKQRPRQGLEWIGWIDPENGKTLYDPKFQDKASITSDTSTNTAYLQLRSLTSEDTAVYYCVTAYYRFVYWGQGTLVTVSA VL: QIVLTQSPAIMSAFPGERVTMTCSASSSVRYMYWHQQKPGSSPRLLIYDTSNVASGVPVRFSGSGSGTSYSLTISRDEAMDAATYYCQQWSSYPRTFGGGTKLEIKR
3 | 0.115 nM | 4.95e-05 s⁻¹ | 432000 M⁻¹ s⁻¹ | Mutation 1-40 (antibody, V domains shown) VH: EVQLQQSGTELVRPGALVKLSCKASGFNIKDYYIHWVKQRPRQGLEWIGWIDPENGKTLYDPKFQDKASITSDTSTNTAYLQLRSLTSEDTAVYYCVTAYVRFVYWGQGTLVTVSA VL: QIVLTQSPAIMSAFPGERVTMTCSASSSVRYMYWHQQKPGSSPRLLIYDTSNVASGVPVRFSGSGSGTSYSLTISRDEAMDAATYYCQQWSSTPRTFGGGTKLEIKR
4 | 0.34 nM | 1.53e-05 s⁻¹ | 44900 M⁻¹ s⁻¹ | Mutation 1-36 (antibody, V domains shown) VH: EVQLQQSGTELVRPGALVKLSCKASGFNIKDYYVHWVKQRPRQGLEWIGWIDPENGKTIYDPKFQDKASITSDTSTNTAYLQLRSLTSEDTAVYYCVTAYFRFVYWGQGTLVTVSA VL: QIVLTQSPAIMSAFPGERVTMTCSASSSVRYMYWHQQKPGSSPRLLIYDTSNLASGVPVRFSGSGSGTSYSLTISRDEAMDAATYYCQQWSSFPRTFGGGTKLEIKR
5 | 0.115 nM | 3.94e-05 s⁻¹ | 344000 M⁻¹ s⁻¹ | Mutation 1-31 (antibody, V domains shown) VH: EVQLQQSGTELVRPGALVKLSCKASGFNIKDYYIHWVKQRPRQGLEWIGWIDPENGKTLYDPKFQDKASITSDTSTNTAYLQLRSLTSEDTAVYYCVTAYVRFVYWGQGTLVTVSA VL: QIVLTQSPAIMSAFPGERVTMTCSASTSVRYMYWHQQKPGSSPRLLIYDTSNLASGVPVRFSGSGSGTSYSLTISRDEAMDAATYYCQQWSSFPRTFGGGTKLEIKR
6 | 6 nM | 2.28e-05 s⁻¹ | 3770 M⁻¹ s⁻¹ | WT 1-1 (antibody, V domains shown) VH: EVQLQQSGTELVRPGALVKLSCKASGFNIKEYYIHWVKQRPRQGLEWIGWIDPDNGKTIYDPKVQDKASITSDTSTNTAYLQLRSLTSEDTAVYYCVTAYFRFVYWGQGTLVTVSA VL: QIVLTQSPAIMSAFPGERVTMTCSASTSVKYMYWHQQKPGSSPRLLIYETSNIASGFPVRFSGSGSGTSYSLTISRDEAMDAATYYCQQQSSYPRTFGGGTKLEIKR
7 | 0.83 nM | 3.75e-05 s⁻¹ | 45100 M⁻¹ s⁻¹ | Mutation 1-39 (antibody, V domains shown) VH: EVQLQQSGTELVRPGALVKLSCKASGFNIKDYYVHWVKQRPRQGLEWIGWIDPENGKTIYDPKFQDKASITSDTSTNTAYLQLRSLTSEDTAVYYCVTAYFRFVYWGQGTLVTVSA VL: QIVLTQSPAIMSAFPGERVTMTCSASTSVRYMYWHQQKPGSSPRLLIYDTSNLASGVPVRFSGSGSGTSYSLTISRDEAMDAATYYCQQWSSFPRTFGGGTKLEIKR
8 | 0.95 nM | 3.56e-05 s⁻¹ | 37600 M⁻¹ s⁻¹ | Mutation 1-30 (antibody, V domains shown) VH: EVQLQQSGTELVRPGALVKLSCKASGFNIKDYYVHWVKQRPRQGLEWIGWIDPENGKTIYDPKFQDKASITSDTSTNTAYLQLRSLTSEDTAVYYCVTAYFRFVYWGQGTLVTVSA VL: QIVLTQSPAIMSAFPGERVTMTCSASSSVRYMYWHQQKPGSSPRLLIYDTSNIASGVPVRFSGSGSGTSYSLTISRDEAMDAATYYCQQWSSYPRTFGGGTKLEIKR
9 | 0.36 nM | 1.37e-05 s⁻¹ | 37800 M⁻¹ s⁻¹ | Mutation 1-38 (antibody, V domains shown) VH: EVQLQQSGTELVRPGALVKLSCKASGFNIKDYYLHWVKQRPRQGLEWIGWIDPENGKTLYDPKFQDKASITSDTSTNTAYLQLRSLTSEDTAVYYCVTAYFRFVYWGQGTLVTVSA VL: QIVLTQSPAIMSAFPGERVTMTCSASSSVRYMYWHQQKPGSSPRLLIYDTSNIASGVPVRFSGSGSGTSYSLTISRDEAMDAATYYCQQWSSYPRTFGGGTKLEIKR
10 | 1.04 nM | 4.35e-05 s⁻¹ | 41900 M⁻¹ s⁻¹ | Mutation 1-35 (antibody, V domains shown) VH: EVQLQQSGTELVRPGALVKLSCKASGFNIKDYYLHWVKQRPRQGLEWIGWIDPENGKTLYDPKFQDKASITSDTSTNTAYLQLRSLTSEDTAVYYCVSAYYRFVYWGQGTLVTVSA VL: QIVLTQSPAIMSAFPGERVTMTCSASTSVRYMYWHQQKPGSSPRLLIYDTSNVASGVPVRFSGSGSGTSYSLTISRDEAMDAATYYCQQWSSTPRTFGGGTKLEIKR
11 | 0.99 nM | 4.68e-05 s⁻¹ | 47500 M⁻¹ s⁻¹ | Mutation 1-33 (antibody, V domains shown) VH: EVQLQQSGTELVRPGALVKLSCKASGFNIKDYYVHWVKQRPRQGLEWIGWIDPENGKTLYDPKFQDKASITSDTSTNTAYLQLRSLTSEDTAVYYCVTAYYRFVYWGQGTLVTVSA VL: QIVLTQSPAIMSAFPGERVTMTCSASTSVRYMYWHQQKPGSSPRLLIYDTSNIASGVPVRFSGSGSGTSYSLTISRDEAMDAATYYCQQWSSYPRTFGGGTKLEIKR
12 | 0.9 nM | 3.23e-05 s⁻¹ | 35700 M⁻¹ s⁻¹ | Mutation 1-29 (antibody, V domains shown) VH: EVQLQQSGTELVRPGALVKLSCKASGFNIKDYYLHWVKQRPRQGLEWIGWIDPENGKTIYDPKFQDKASITSDTSTNTAYLQLRSLTSEDTAVYYCVSAYYRFVYWGQGTLVTVSA VL: QIVLTQSPAIMSAFPGERVTMTCSASTSVRYMYWHQQKPGSSPRLLIYDTSNVASGVPVRFSGSGSGTSYSLTISRDEAMDAATYYCQQWSSYPRTFGGGTKLEIKR
13 | 0.44 nM | 1.34e-05 s⁻¹ | 30600 M⁻¹ s⁻¹ | Mutation 1-34 (antibody, V domains shown) VH: EVQLQQSGTELVRPGALVKLSCKASGFNIKDYYIHWVKQRPRQGLEWIGWIDPENGKTIYDPKFQDKASITSDTSTNTAYLQLRSLTSEDTAVYYCVSAYVRFVYWGQGTLVTVSA VL: QIVLTQSPAIMSAFPGERVTMTCSASSSVRYMYWHQQKPGSSPRLLIYDTSNLASGVPVRFSGSGSGTSYSLTISRDEAMDAATYYCQQWSSFPRTFGGGTKLEIKR
14 | 0.79 nM | 3.47e-05 s⁻¹ | 44100 M⁻¹ s⁻¹ | Mutation 1-41 (antibody, V domains shown) VH: EVQLQQSGTELVRPGALVKLSCKASGFNIKDYYLHWVKQRPRQGLEWIGWIDPENGKTIYDPKFQDKASITSDTSTNTAYLQLRSLTSEDTAVYYCVSAYYRFVYWGQGTLVTVSA VL: QIVLTQSPAIMSAFPGERVTMTCSASTSVRYMYWHQQKPGSSPRLLIYDTSNIASGVPVRFSGSGSGTSYSLTISRDEAMDAATYYCQQWSSYPRTFGGGTKLEIKR
15 | 0.35 nM | 1.71e-05 s⁻¹ | 48500 M⁻¹ s⁻¹ | Mutation 1-37 (antibody, V domains shown) VH: EVQLQQSGTELVRPGALVKLSCKASGFNIKDYYIHWVKQRPRQGLEWIGWIDPENGKTLYDPKFQDKASITSDTSTNTAYLQLRSLTSEDTAVYYCVSAYYRFVYWGQGTLVTVSA VL: QIVLTQSPAIMSAFPGERVTMTCSASTSVRYMYWHQQKPGSSPRLLIYDTSNVASGVPVRFSGSGSGTSYSLTISRDEAMDAATYYCQQWSSTPRTFGGGTKLEIKR
16 | 1.09 nM | 1.78e-05 s⁻¹ | 33900 M⁻¹ s⁻¹ | Mutation 1-25 (antibody, V domains shown) VH: EVQLQQSGTELVRPGALVKLSCKASGFNIKDYYIHWVKQRPRQGLEWIGWIDPENGKTIYDPKFQDKASITSDTSTNTAYLQLRSLTSEDTAVYYCVTAYFRFVYWGQGTLVTVSA VL: QIVLTQSPAIMSAFPGERVTMTCSASSSVRYMYWHQQKPGSSPRLLIYDTSNLASGVPVRFSGSGSGTSYSLTISRDEAMDAATYYCQQWSSTPRTFGGGTKLEIKR
17 | 0.53 nM | 1.74e-05 s⁻¹ | 37700 M⁻¹ s⁻¹ | Mutation 1-24 (antibody, V domains shown) VH: EVQLQQSGTELVRPGALVKLSCKASGFNIKDYYVHWVKQRPRQGLEWIGWIDPENGKTLYDPKFQDKASITSDTSTNTAYLQLRSLTSEDTAVYYCVTAYVRFVYWGQGTLVTVSA VL: QIVLTQSPAIMSAFPGERVTMTCSASTSVRYMYWHQQKPGSSPRLLIYDTSNIASGVPVRFSGSGSGTSYSLTISRDEAMDAATYYCQQWSSYPRTFGGGTKLEIKR
18 | 0.35 nM | 1.23e-05 s⁻¹ | 35200 M⁻¹ s⁻¹ | Mutation 1-32 (antibody, V domains shown) VH: EVQLQQSGTELVRPGALVKLSCKASGFNIKDYYLHWVKQRPRQGLEWIGWIDPENGKTIYDPKFQDKASITSDTSTNTAYLQLRSLTSEDTAVYYCVTAYFRFVYWGQGTLVTVSA VL: QIVLTQSPAIMSAFPGERVTMTCSASSSVRYMYWHQQKPGSSPRLLIYDTSNIASGVPVRFSGSGSGTSYSLTISRDEAMDAATYYCQQWSSTPRTFGGGTKLEIKR
19 | 0.78 nM | 2.89e-05 s⁻¹ | 37000 M⁻¹ s⁻¹ | Mutation 1-28 (antibody, V domains shown) VH: EVQLQQSGTELVRPGALVKLSCKASGFNIKDYYIHWVKQRPRQGLEWIGWIDPENGKTLYDPKFQDKASITSDTSTNTAYLQLRSLTSEDTAVYYCVSAYFRFVYWGQGTLVTVSA VL: QIVLTQSPAIMSAFPGERVTMTCSASTSVRYMYWHQQKPGSSPRLLIYDTSNLASGVPVRFSGSGSGTSYSLTISRDEAMDAATYYCQQWSSYPRTFGGGTKLEIKR
20 | 0.121 nM | 3.66e-05 s⁻¹ | 303000 M⁻¹ s⁻¹ | Mutation 1-27 (antibody, V domains shown) VH: EVQLQQSGTELVRPGALVKLSCKASGFNIKDYYVHWVKQRPRQGLEWIGWIDPENGKTIYDPKFQDKASITSDTSTNTAYLQLRSLTSEDTAVYYCVSAYVRFVYWGQGTLVTVSA VL: QIVLTQSPAIMSAFPGERVTMTCSASSSVRYMYWHQQKPGSSPRLLIYDTSNLASGVPVRFSGSGSGTSYSLTISRDEAMDAATYYCQQWSSTPRTFGGGTKLEIKR
